Measurements reported in patent US11623951B2, “Antibodies to R-spondin 3” (National Health Research Institutes, priority 2017, dated 2023).
Several values for one entry are separate records, joined by “and”; a condition that tells them apart may be missing. Equal values may be shown once.

T1: RSPO3 (Homo sapiens, UniProt Q9BXY4)
T1 sequence (Q9BXY4 22-272): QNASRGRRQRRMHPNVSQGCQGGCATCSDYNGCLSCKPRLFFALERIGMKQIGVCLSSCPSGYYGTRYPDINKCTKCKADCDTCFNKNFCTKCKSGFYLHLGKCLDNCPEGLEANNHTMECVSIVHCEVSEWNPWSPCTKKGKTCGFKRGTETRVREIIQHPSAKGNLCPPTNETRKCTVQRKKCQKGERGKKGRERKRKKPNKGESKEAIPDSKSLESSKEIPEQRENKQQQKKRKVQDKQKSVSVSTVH


Tests used:
[1] = tested on: human SNU-1411 colon xenograft tumor; experiment: SNU-1411 colon xenograft tumor carrying PTPRK(e13)-RSPO3(e2) fusion transcript; assay type: in vivo, mice
Method: FIG. 15 is a set of graphs showing anti-tumor efficacy of in human SNU-1411 colon xenograft tumor carrying PTPRK(e13)-RSPO3(e2) fusion transcript. Tumor cells were injected into the mice and treatments were initiated when the tumors reaches 200 mm^3. Antibodies were given at 25 mg/kg once every other week (Q2W) and paclitaxel at 20 mg/kg once every week (Q1W). Both antibodies and […] were administered by intravenous injection. Paclitaxel was given from day 1 to day 32 and combination groups from day 1 to day 46. Both antibodies and paclitaxel were administered by intravenous injection. For each treatment cycle, antibodies were given on day 1 and paclitaxel on day 3. Tumor and body weight measurements were taken on the indicated days. Mean±SEM. *: p<0.05 vs. control mAb by one-way ANOVA followed by Tukey's post-test comparison.
To determine the effect of antibodies on SNU-1411 xenograft tumor, tumor-bearing animals were randomized and treatment began when mean tumor volumes reached approximately 150-200 mm^3. Antibodies were given once every other week (Q2W) and paclitaxel was administered once a week (Q1W). Both antibody and paclitaxel were administered intravenously. Tumor growth was measured twice a week by an electronic caliper. Tumor volumes were calculated with the formula (L×W^2)/2, where L was the longest and W was the shortest axis of the tumor. Animal weights were recorded once a week. Mice were examined frequently for overt signs of any adverse drug-related side effects. At the end of the study, all the mice were euthanized.

[2] = tested on: hRSPO3 overlapping linear peptides; experiment: PepSet ELISA epitope mapping with linear 10-mer peptides of RSPO3; assay type: binding, human; conditions: antibody 10 μg/ml
Description: FIG. 8 is a set of graphs showing mapping of the α-RSPO3 Ab epitopes on RSPO3 protein by Pep-set. These histograms represent the ability of each 10-mer oligopeptide to bind the RSPO3 Abs 131R010(A), 131R002 (B), and hybridoma A6 (C) as indicated in the figure. QNASRGRRQR (SEQ ID NO: 74); ASRGRRQRRM (SEQ ID NO: 75); RGRRQRRMHP (SEQ ID NO: 84); RRQRRMHPNV (SEQ ID NO: 76); CLSCKPRLFF (SEQ ID NO: 77); SCKPRLFFAL (SEQ ID NO: 78); ERGKKGRERK (SEQ ID NO: 79); GKKGRERKRK (SEQ ID NO: 80); KGRERKRKKP (SEQ ID NO: 81); RERKRKKPNK (SEQ ID NO: 82); RENKQQQKKR (SEQ ID NO: 83).
ELISA for PepSet library was employed to determine α-RSPO3 hB1 antibodies and RSPO3 binding epitope. […] The colorimetric reaction were then stop by 2N HCL and the optical density at 450 nm of each well were determined immediately.
To identify the binding epitopes of α-RSPO3 Abs, an overlapping peptide library (10-mer for each peptide, offset: 2 amino acid residues, total number of peptides to cover the mature hRSPO3:122) derived from hRSPO3 amino sequences was prepared by Mimotope, Inc. The binding of α-RSPO3 mAbs to the overlapping peptides derived from hRSPO3 was measured. […] According to the epitope mapping results using linear peptides (FIG. 8 and Table 6), it was concluded that hB1 likely binds to a conformationlly-determined epitope on huRSPO3.

RSPO3 = target: T1, RSPO3; experiment: Octet (ForteBio) kinetic binding to biotinylated RSPO3; conditions: 30° C.
Method: The streptavidin-coated sensors were coated with 10 μg/ml of biotinylated RSPO3 as described in the handbook of ForteBio. Antibody concentrations were in the range of 0.75 and 93.8 nM. Quantitative kinetic binding analysis was performed with pH-adjusted PBS with 0.5% BSA. All steps were run at 30° C. with a continuous shaking speed at 1000 rpm.
To assess the RSPO3-binding affinities of the antibodies, kinetics assays were performed by the Octetsystems. The purified monoclonal antibodies (mAbs) from batch-A clones (A1, A4, A6, A9), along with the reference Ab-131R002, were examined for binding with RSPO-3.

[3] = tested on: RSPO3-Wnt signaling (hRSPO3), MDA-MB436 TCF/LEF-Luc cells; experiment: TCF/LEF-Luc WNT reporter assay in MDA-MB436 cells stimulated by Wnt3a plus human RSPO3; assay type: cell-based; conditions: MDA-MB436 reporter cell line
Method: FIG. 4 is a set of graphs showing RSPO3 Abs targeting the canonical Wnt signaling and in vitro testing for inhibition of β-catenin activity. (A) A1, A2, A4, A5, A6, and A9 clones; (B) B1, B3, B4, B8, and B9 clones; and (C) Dose-response effect of elevated A4 and A6 clones on RSPO-Wnt signaling. MDA-MB436 TCF/LEF-Luc cells were incubated with a combination of Wnt3a (20 ng/mL) and RSPO3 (50 ng/mL) in the presence of 20 μg/mL anti-RSPO3 antibodies clone A1, A2, A4, A5, A6, A9 or 131R002. As controls, cells were incubated with a combination of Wnt3a and RSPO3, Wnt3a only, RSPO3 only, or with no addition. The cells were incubated for 16 hours and the luciferase activity assay was performed using One-Glo Luciferase Assay System.
FIG. 6 is a set of graph showing that anti-RSPO3 Ab inhibits WNT reporter activity stimulated by combination of Wnt3a and RSPO3. […] The cells were incubated for 16 hours. The luciferase activity assay was performed using One-Glo Luciferase Assay System.
Wnt signaling leads to β-catenin/TCF dependent transcriptional responses. MDA-MB436-TCF/LEF-Luc cells, a gift from Dr. Kelvin Kun-Chih Tsai, were employed to monitor the activity of Wnt signal transduction pathways. See, e.g., Wang et al. (2013). Gastroenterology (145): 1110-1120. In brief, MDA-MB436-TCF/LEF-Luc cells were seeded in black flat bottom 96 well culture plates (Costar) in RSPO Medium supplemented with 10% FBS and incubated overnight at 37° C., 5% CO2. 24 hours after incubation, cells were treated with anti-RSPO3 ab, 20 ng/ml WNT3a (R&D system) and RSPO ligands (Peprotech Systems) where appropriate and further incubated for 16 hours. Luciferase activity was measured using Bright-Glo Luciferase Assay System (Promega).

RSPO1, 2, 3, and 4 = experiment: Antigen-binding ELISA, selectivity among RSPO1-4
Description: FIG. 3 is a set of graphs showing Anti-RSPO3 hybridoma antibodies reactivity measured by ELISA. These hybridoma antibodies were reacted with RSPO1-4 antigen immunoblots, which reflect with the RSPO3 antigen. (A) A1, A2, A4, A5, A6, and A9 clones; and (B) B1, B3, B4, B8, and B9 clones.
To assess the RSPO-binding capability of antibodies, purified antibodies were reacted with RSPO1, 2, 3, and 4 on immunoblots. To perform antigen-binding ELISA assay, 96-well high binding polystyrene plates (Corning) were coated with 2 μg/ml of recombinant RSPO3 preparation in the capture buffer by overnight incubation at 4° C. Coated plates were washed twice with PBS supplemented with 0.05% Tween 20 (PBST). The plates were blocked with PBST—10% BSA and assayed with ELISA standard protocol for 1 h at room temperature.

Molecule	RMax (RSPO3)	kdis (RSPO3) [s⁻¹]	kon (RSPO3) [M⁻¹ s⁻¹]	selectivity in binding among RSPO1-4 in ELISA (RSPO1, 2, 3, and 4)	Tumor volume on day 32 ([1]; antibodies 25 mg/kg Q2W, paclitaxel 20 mg/kg Q1W, i.v.) [mm^3]	Tumor volume on day 18 ([1]; antibodies 25 mg/kg Q2W, paclitaxel 20 mg/kg Q1W, i.v., mean±SEM) [mm^3]	Tumor volume on day 32 ([1]; antibodies 25 mg/kg Q2W, paclitaxel 20 mg/kg Q1W, i.v., listed as paclitaxel) [mm^3]	Tumor volume reduction, % of Control mAb ([1]; day 18)	Signal (binding to linear RSPO3 peptides) [2]	dose-dependent inhibitory effect in TCF/LEF-Luc reporter [3]
CC(=O)O[C@H]1C(=O)[C@@]2(C)[C@H]([C@H](OC(=O)c3ccccc3)[C@]3(O)C[C@H](OC(=O)[C@H](O)[C@@H](NC(=O)c4ccccc4)c4ccccc4)C(C)=C1C3(C)C)[C@]1(OC(C)=O)CO[C@@H]1C[C@@H]2O [Paclitaxel, reference compound]	–	–	–	–	949 ± 105	329 ± 59	950	69% and 69 ± 6* %	–	–
B1: murine anti-RSPO3 mAb, IgG1; VH SEQ ID NO: 10, VL SEQ ID NO: 12 (antibody, V domains shown, Heavy chain variable region; Light chain variable region) VH: QIQLQESGPGLVKPSQSLSLTCSVTGYSITSGYYWNWIRQFPGNKLEWMGYISYDGTNNYNPSLKDRISITRDTSMNQFFLKLNSVTTEDTATYYCSVLLIQYFNIWGAGTTVTVSS VL: DIQMTQSPASLSASVGETVTITCRTSESVNNFLAWFHQKQGKSPQLLVYHAKTLADGVSSRFSGSGSGTQYSLKINSLQPEDFGNYYCQHFWSIPWTFGGGTKLEIKR	–	–	–	only reacted with RSPO3	–	–	–	–	–	significantly inhibitory effect in a dose-dependent manner

Now from value to molecule, other results behind:

RMax (RSPO3)	kdis (RSPO3) [s⁻¹]	kon (RSPO3) [M⁻¹ s⁻¹]	selectivity in binding among RSPO1-4 in ELISA (RSPO1, 2, 3, and 4)	Molecule	Tumor volume on day 32 ([1]; antibodies 25 mg/kg Q2W, paclitaxel 20 mg/kg Q1W, i.v.) [mm^3]	Tumor volume on day 18 ([1]; antibodies 25 mg/kg Q2W, paclitaxel 20 mg/kg Q1W, i.v., mean±SEM) [mm^3]	Tumor volume on day 32 ([1]; antibodies 25 mg/kg Q2W, paclitaxel 20 mg/kg Q1W, i.v., listed as paclitaxel) [mm^3]	Tumor volume reduction, % of Control mAb ([1]; day 18)	Signal (binding to linear RSPO3 peptides) [2]	dose-dependent inhibitory effect in TCF/LEF-Luc reporter [3]
0.3588	0.000884	32700	only reacted with RSPO3	A4: murine anti-RSPO3 mAb, IgG1; VH SEQ ID NO: 2, VL SEQ ID NO: 4 (antibody, V domains shown, heavy chain variable region; Light chain variable region) VH: QVQLQESGAELAKPGASVKMSCKASGHTLTYYWMHWVKQRPGQGLEWIGYIDPSTGYSEYNQRFEGKATLTADKSSGTVYMQLSSLTSEDSAVYYCARNGPFAYWGQGTLVTVSA VL: DNVLTQSPAIMSASPGEKVTMTCSASSSVNYMYWYQQKPGSSPRLLIYDTSKLASGVPVRFSGSGSGTSYSLTISRMEAEDAATYYCQQWSSSPLTFGVGAKLEIKR	–	–	–	–	neither the A4 nor the hB1 mAbs showed detectable binding signals	significantly inhibitory effect in a dose-dependent manner
0.2151	0.0025	241000	only reacted with RSPO3	A6: murine anti-RSPO3 mAb, IgG2a; VH SEQ ID NO: 6, VL SEQ ID NO: 8 (antibody, V domains shown, Heavy chain variable region; Light chain variable region) VH: QVQLQQSGAEIVRSGASVKLSCTASGFSITEYYIHWVKQRPDQGLEWIGMIDPENGDTDYAPKFQGKATMTADTSSNTVNLQLSSLTSEDTAVYYCHGPGPLEYWGQGTTLTVSS VL: DIVMTQSPLSLPVSLGDQASISCRSSQSIVHSNGNTYLEWYLQKPGQSPNLLIYRVSNRFSGVPDRFNGSGSGTDFTLKISRVEPEDLGVYSCFQASHVPYTFGGGTKLEIKR	–	–	–	–	–	significantly inhibitory effect in a dose-dependent manner
